Reference: paper PMC7983947, “ADP-Ribosylation Regulates the Signaling Function of IFN-γ” (Frontiers in Immunology, 2021)

T1: recombinant IFNR1-Fc (extracellular domain of interferon receptor 1) (UniProt P15261)
T1 sequence: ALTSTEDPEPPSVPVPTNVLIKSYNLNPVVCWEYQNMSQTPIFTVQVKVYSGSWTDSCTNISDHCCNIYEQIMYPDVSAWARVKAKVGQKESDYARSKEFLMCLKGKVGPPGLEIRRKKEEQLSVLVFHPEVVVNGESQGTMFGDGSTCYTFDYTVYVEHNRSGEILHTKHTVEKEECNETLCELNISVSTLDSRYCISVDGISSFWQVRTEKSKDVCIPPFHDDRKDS


Legend:
[1] = target: T1, recombinant IFNR1-Fc (extracellular domain of interferon receptor 1)
[2] = target: the molecule itself; test: non-reducing SDS-PAGE; murine serum spiked with IFN-γ, incubated with shed ARTC2.2 and 32P-NAD+; gel run under non-reducing conditions, autoradiography

| phosphorylation of STAT1 in primary peritoneal macrophages (flow cytometry, serial titrations); loss of potency against unmodified IFN-γ; restored by de-ADP-ribosylation with ARH1 [1] [fold] | Binder | binding result [2] |
| --- | --- | --- |
| 4 | ADP-ribosylated IFN-γ (ligand, ADP-ribosyl-arginine at R128) HGTVIESLESLNNYFNSSGIDVEEKSLFLDIWRNWQKDGDMKILQSQIISFYLRLFEVLKDNQAISNNISVIESHLITTFFSNSKAKKDAFMSIAKFEVNNPQVQRQAFNELIRVVHQLLPESSLRKRKRSRC |  |
|  | recombinant murine IFN-γ (ligand, UniProt P01580 23-155, looked up, interferon gamma, murine, recombinant; also called interferon-gamma; native IFN-γ homodimer; source: bought: Immunotools) HGTVIESLESLNNYFNSSGIDVEEKSLFLDIWRNWQKDGDMKILQSQIISFYLRLFEVLKDNQAISNNISVIESHLITTFFSNSKAKKDAFMSIAKFEVNNPQVQRQAFNELIRVVHQLLPESSLRKRKRSRC | binds |
